According to patent US20030049605A1 (published 2003):

B1: gpIII/env2 phage (ecotropic Moloney MuLV envelope residues 34-308 displayed as a fusion with M13 gpIII) (other)
chain: ASPGSSPHQVYNITWEVTNGDRETVWATSGNHPLWTWWPDLTPDLCMLAHHGPSYWGLEYQSPFSSPPGPPCCSGGSSPGCSRDCEEPLTSLTPRCNTAWNRLKLDQTTHKSNEGFYVCPGPHRPRESKSCGGPDSFYCAYWGCETTGRAYWKPSSSWDFITVNNNLTSDQAVQVCKDNKWCNPLVIRFTDAGRRVTSWTTGHYWGLRLYVSGQDPGLTFGIRLRYQNLGPRVPIGPNPVLADQQPLSKPKPVKSPSVTKPPSGTPLSPTQLPPATSGGGGS
notes: range 34-308; Tested as whole phage particles. pelB leader left out; also called construct 2
B2: gpIII/env1 phage (ecotropic Moloney MuLV envelope residues 34-468 displayed as a fusion with M13 gpIII) (other)
chain: ASPGSSPHQVYNITWEVTNGDRETVWATSGNHPLWTWWPDLTPDLCMLAHHGPSYWGLEYQSPFSSPPGPPCCSGGSSPGCSRDCEEPLTSLTPRCNTAWNRLKLDQTTHKSNEGFYVCPGPHRPRESKSCGGPDSFYCAYWGCETTGRAYWKPSSSWDFITVNNNLTSDQAVQVCKDNKWCNPLVIRFTDAGRRVTSWTTGHYWGLRLYVSGQDPGLTFGIRLRYQNLGPRVPIGPNPVLADQQPLSKPKPVKSPSVTKPPSGTPLSPTQLPPAGTENRLLNLVDGAYQALNLTSPDKTQECWLCLVAGPPYYEGVAVLGTYSNHTSAPANCSVASQHKLTLSEVTGQGLCIGAVPKTHQALCNTTQTSSRGSYYLVAPTGTMWACSTGLTPCISTTILNLTTDYCVLVELWPRVTYHSPSYVYGLFERSNRHKTSGGGGSPFVCEYQGQSSDLPQPPVNAGGGSGGGSGGGSEGGGSEGGGSEGGGSEGGGSGGGSGSGDFDYEKMANANKGAMTENADENALQSDAKGKLDSVATDYGAAIDGFIGDVSGLANGNGATGDFAGSNSQMAQVGDGDNSPLMNNFRQYLPSLPQSVECRPFVFSAGKPYEFSIDCDKINLFRGVFAFLLYVATFMYVFSTFANILRNKES
notes: Tested as whole phage particles displaying the fusion; also called construct 1
B3: gpIII/env3 phage (ecotropic Moloney MuLV envelope residues 34-266 displayed as a fusion with M13 gpIII) (other)
chain: ASPGSSPHQVYNITWEVTNGDRETVWATSGNHPLWTWWPDLTPDLCMLAHHGPSYWGLEYQSPFSSPPGPPCCSGGSSPGCSRDCEEPLTSLTPRCNTAWNRLKLDQTTHKSNEGFYVCPGPHRPRESKSCGGPDSFYCAYWGCETTGRAYWKPSSSWDFITVNNNLTSDQAVQVCKDNKWCNPLVIRFTDAGRRVTSWTTGHYWGLRLYVSGQDPGLTFGIRLRYQNLGPRVTSGGGGS
notes: range 34-266; Tested as whole phage particles. pelB leader left out; also called construct 3

Each binder was assayed against T1, mCAT1, ecotropic retroviral receptor (cationic amino acid transporter), expressed on human 911 cells … (mouse, UniProt Q09143 1-622) (assay: phage binding to cells, elution with triethylamine, titering (cfu)).
T1 construct: whole, on cells; also called mATRC1; 911-mCAT1-3H7
T1 sequence (Q09143 whole entry): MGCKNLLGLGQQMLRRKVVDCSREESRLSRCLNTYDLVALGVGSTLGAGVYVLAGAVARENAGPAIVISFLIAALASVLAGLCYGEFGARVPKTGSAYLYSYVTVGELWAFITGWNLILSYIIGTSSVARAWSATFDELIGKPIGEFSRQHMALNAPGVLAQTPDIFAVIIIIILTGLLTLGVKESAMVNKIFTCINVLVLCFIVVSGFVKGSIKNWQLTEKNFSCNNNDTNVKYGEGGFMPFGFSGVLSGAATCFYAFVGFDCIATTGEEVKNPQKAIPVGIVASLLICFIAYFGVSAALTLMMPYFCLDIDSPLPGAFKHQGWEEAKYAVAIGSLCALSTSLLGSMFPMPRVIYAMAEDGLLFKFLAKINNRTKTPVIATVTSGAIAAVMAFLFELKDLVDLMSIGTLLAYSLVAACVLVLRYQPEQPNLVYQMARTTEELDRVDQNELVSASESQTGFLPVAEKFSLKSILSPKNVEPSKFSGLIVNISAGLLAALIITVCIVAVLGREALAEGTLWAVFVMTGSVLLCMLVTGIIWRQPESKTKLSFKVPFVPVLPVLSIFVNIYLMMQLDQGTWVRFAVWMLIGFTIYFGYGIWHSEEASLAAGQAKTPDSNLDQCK
For B1, the “times more eluted phage from 911-mCAT1 cell line as compared to 911-pcDNA3 cell line” value was 97 times. With B2 the “times more eluted phage from 911-mCAT1 cell line as compared to 911-pcDNA3 cell line” value was 11 times. B3 was tested, and the “times more eluted phage from 911-mCAT1 cell line as compared to 911-pcDNA3 cell line” value was 26 times.
